Laboratory results taken from patent publication US20260028422A1 (CONCEPT TO MEDICINE BIOTECH, published 2026).
Read-outs that look alike come from different tables or passages of the source.

How the values were obtained:
[1] = target: T1, human MerTK-his protein (human, UniProt Q12866 21-505); experiment: ELISA, plate coated with human MerTK-his, anti-human IgG Fc-HRP, OD 450nm
T1 construct: extracellular domain; also called hMerTK-His; human MerTK protein
T1 sequence (looked up): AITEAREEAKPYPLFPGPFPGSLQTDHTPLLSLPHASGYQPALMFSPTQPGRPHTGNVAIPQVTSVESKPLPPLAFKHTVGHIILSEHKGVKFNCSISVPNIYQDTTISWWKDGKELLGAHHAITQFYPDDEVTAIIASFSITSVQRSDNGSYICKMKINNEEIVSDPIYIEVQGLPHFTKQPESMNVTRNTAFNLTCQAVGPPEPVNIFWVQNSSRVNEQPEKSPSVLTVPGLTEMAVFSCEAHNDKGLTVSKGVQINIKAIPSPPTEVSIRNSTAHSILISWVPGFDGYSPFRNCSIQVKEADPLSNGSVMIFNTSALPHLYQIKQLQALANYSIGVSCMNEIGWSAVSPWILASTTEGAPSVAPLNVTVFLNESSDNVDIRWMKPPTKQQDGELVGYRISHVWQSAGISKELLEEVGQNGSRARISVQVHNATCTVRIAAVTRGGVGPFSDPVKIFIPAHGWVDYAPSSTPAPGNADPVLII

[2] = target: T1, human MerTK-his protein; experiment: as above; remark: listed apart in the source

EC50 [1]: 0.027 nM
EC50 [2]: 0.037 nM
B1: h13B4.v16 benchmark antibody (antibody, V domains shown)
VH: EVQLVESGEGLVQPGGSLRLSCAASGFSLSSYAMGWVRQAPGKGLEYVGIINSYGNTYYANWAKGRFTISRDNSKNTVYLQMGSLRAEDMAVYYCARDPGVSSNLWGRGTLVTVSS
VL: DIQMTQSPSTLSASVGDRVTITCQASQNIYSGLAWYQQKPGKAPKLLIYGASKLASGVPSRFSGSGSGTEFTLTISSLQPDDFATYYCQATYYSSNSVAFGGGTKVEIK
